Earlier results on 1 substance are cited in paper PMC9206673.

One may read the Kd as the concentration at which binding is half-saturated.

In series [1] the target is neurotransmitter receptor peptide.

Chain of Gephyrin (Q8BUV3 whole entry): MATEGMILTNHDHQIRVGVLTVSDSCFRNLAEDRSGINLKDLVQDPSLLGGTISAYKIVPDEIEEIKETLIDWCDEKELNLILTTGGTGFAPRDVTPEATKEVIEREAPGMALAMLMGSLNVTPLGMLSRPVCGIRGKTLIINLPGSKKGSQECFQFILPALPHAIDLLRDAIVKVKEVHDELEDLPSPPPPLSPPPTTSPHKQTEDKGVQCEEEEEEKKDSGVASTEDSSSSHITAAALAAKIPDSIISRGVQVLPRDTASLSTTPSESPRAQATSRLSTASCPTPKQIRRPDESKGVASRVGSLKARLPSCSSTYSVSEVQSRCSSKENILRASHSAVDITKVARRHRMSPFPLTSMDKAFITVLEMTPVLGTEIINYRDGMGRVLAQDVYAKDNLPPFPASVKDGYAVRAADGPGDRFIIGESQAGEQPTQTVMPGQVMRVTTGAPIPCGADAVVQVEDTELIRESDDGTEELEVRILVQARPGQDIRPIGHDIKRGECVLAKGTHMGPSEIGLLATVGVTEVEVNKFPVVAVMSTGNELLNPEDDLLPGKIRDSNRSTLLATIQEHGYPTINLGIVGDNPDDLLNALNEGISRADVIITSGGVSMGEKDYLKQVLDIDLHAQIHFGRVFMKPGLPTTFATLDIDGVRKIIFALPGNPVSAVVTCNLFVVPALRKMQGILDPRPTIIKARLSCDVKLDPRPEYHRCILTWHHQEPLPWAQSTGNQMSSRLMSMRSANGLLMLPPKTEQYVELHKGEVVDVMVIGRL

In the case of Gephyrin (from UniProt Q8BUV3), the values for the Kd (in series [1]; in the series with gephyrin-binding peptide) were 0.14 µM and 0.00014 µM, respectively.
